B1: Nanobody 2B10 (VHH)
VHH: EVQLVESGGGLVQPGGSLRLSCAASGSIFSINNMGWYRQAPGKQRELVTVVTSNLITTYADSVKGRFTISRDNAKNTVYLQMNSLKPEDTAVYYCNAWARSVGSVPYSQFWGQGTLVTVSS
notes: also called 02B10
B2: Nanobody 5H01 (VHH)
VHH: EVQLVESGGGLVQPGGSLRLSCAASGSTLDYYAIGWFRQAPGKEREGVSCTSNSGSTYYGGSVKGRFTASRDNAKNTVYLQMNSLRPEDTAVYYCVATIGCATLGGTLDVQRYYYRGQGTQVTVSS
notes: also called 05H01
B3: Nanobody 6B05 (VHH)
VHH: EVQLVESGGGLVQPGGSLRLSCAASGSIFSINTMGWYRQAPGKQRELVSTITSNLVPHYADSVQGRFTISRDNARNTVYLQMNSLKPQDTAHYYCNAWARSSGATPYTNYWGQGTLVTVSS
notes: also called 06B05
B4: Fab 13.37 (Fab, V domains shown)
VH: QVQLVESGGGVVQPGRSLRLSCAASGFTFSSYPLHWVRQAPGKGLEWVSFISYDGSEKYYASSVKGRFTISRDNSENTLYLQMNSLRPEDTAVYYCARNRGDIYYDFTYAMDIWGQGTMVTVSS
VL: DIQMTQSPSSLSASVGDRVTITCRASQSISRWVAWYQQRPGKAPNLLIYDASSLKSGVPSRFSGSGSGTEFTLTISSLQPEDIATYYCQQFWGTPYTFGQGTKLEIKR
B5: Nanobody 1E11 (VHH)
VHH: EVQLVESGGGLVQPGGSLRLSCAASGSTRSVNPMAWFRQAPGRQREWVATISRSGYATYADSVKGRFTISGDNAKSSVYLQMNSLKPEDTAVYYCVTGTYWGQGTLVTVSS
notes: also called 01E11
B6: Nanobody 13F07 (VHH)
VHH: EVQLVESGGGLVQAGGSLRLSCAASGNTFSTNPMYWYRQAEGKQRELVASISSRGITNYADSVRGRFSISRDNTKDTVYLQMNSLKPEDTAVYYCRLASLSSGTVYWGKGTLVTVSS
B7: Nanobody 277 (5H01-40GS-11B09) (VHH)
chain: EVQLVESGGGLVQPGGSLRLSCAASGSTLDYYAIGWFRQAPGKEREGVSCTSNSGSTYYGGSVKGRFTASRDNAKNTVYLQMNSLRPEDTAVYYCVATIGCATLGGTLDVQRYYYRGQGTLVTVSSGGGGSGGGGSGGGGSGGGGSGGGGSGGGGSGGGGSGGGGSEVQLVESGGGLVQAGGSLRLSCAASRLTFNHYNMGWFRQAPGKERERVAEVTWSGDKIYYVDSVKGRFTISRDNTPNPVYLYLQMNSLKPEDTAVYYCATAPRGLPYANGYWGQGTLVTVSS
B8: Nanobody 335 (5H01-40GS-1E11) (VHH)
chain: EVQLVESGGGLVQPGGSLRLSCAASGSTLDYYAIGWFRQAPGKEREGVSCTSNSGSTYYGGSVKGRFTASRDNAKNTVYLQMNSLRPEDTAVYYCVATIGCATLGGTLDVQRYYYRGQGTLVTVSSGGGGSGGGGSGGGGSGGGGSGGGGSGGGGSGGGGSGGGGSEVQLVESGGGLVQPGGSLRLSCAASGSTRSVNPMAWFRQAPGRQREWVATISRSGYATYADSVKGRFTISGDNAKSSVYLQMNSLKPEDTAVYYCVTGTYWGQGTLVTVSS
B9: Nanobody 261 (5H01-40GS-2B10) (VHH)
chain: EVQLVESGGGLVQPGGSLRLSCAASGSTLDYYAIGWFRQAPGKEREGVSCTSNSGSTYYGGSVKGRFTASRDNAKNTVYLQMNSLRPEDTAVYYCVATIGCATLGGTLDVQRYYYRGQGTLVTVSSGGGGSGGGGSGGGGSGGGGSGGGGSGGGGSGGGGSGGGGSEVQLVESGGGLVQPGGSLRLSCAASGSIFSINNMGWYRQAPGKQRELVTVVTSNLITTYADSVKGRFTISRDNAKNTVYLQMNSLKPEDTAVYYCNAWARSVGSVPYSQFWGQGTLVTVSS
B10: Nanobody 319 (13F07-40GS-6B05) (VHH)
chain: EVQLVESGGGLVQAGGSLRLSCAASGNTFSTNPMYWYRQAEGKQRELVASISSRGITNYADSVRGRFSISRDNTKDTVYLQMNSLKPEDTAVYYCRLASLSSGTVYWGKGTLVTVSSGGGGSGGGGSGGGGSGGGGSGGGGSGGGGSGGGGSGGGGSEVQLVESGGGLVQPGGSLRLSCAASGSIFSINTMGWYRQAPGKQRELVSTITSNLVPHYADSVQGRFTISRDNARNTVYLQMNSLKPQDTAHYYCNAWARSSGATPYTNYWGQGTLVTVSS
B11: Nanobody 275 (2G09-40GS-5H01) (VHH)
chain: EVQLVESGGGLVQPGGSLRLSCAASGSFGDNYELYAMTWFRQAPGERRDFVASVTGDGSTSYADSVKDRFTISRDNAKKLMYLQMNSLKPEDTAVYYCRLLNYWGQGTLVTVSSGGGGSGGGGSGGGGSGGGGSGGGGSGGGGSGGGGSGGGGSEVQLVESGGGLVQPGGSLRLSCAASGSTLDYYAIGWFRQAPGKEREGVSCTSNSGSTYYGGSVKGRFTASRDNAKNTVYLQMNSLRPEDTAVYYCVATIGCATLGGTLDVQRYYYRGQGTLVTVSS
B12: Nanobody 285 (13F07-40GS-2B02) (VHH)
chain: EVQLVESGGGLVQAGGSLRLSCAASGNTFSTNPMYWYRQAEGKQRELVASISSRGITNYADSVRGRFSISRDNTKDTVYLQMNSLKPEDTAVYYCRLASLSSGTVYWGKGTLVTVSSGGGGSGGGGSGGGGSGGGGSGGGGSGGGGSGGGGSGGGGSEVQLVESGGGLVQPGDSLRLSCAASGRILSINNMVWYRQAPGKQRELVAHITSSGSTGYADSVKGRFTISRDNAKNTFYLQMTNLNPEDTAVYYCNCWVSSDSNAPLKNYWGQGTLVTVSS
B13: Nanobody 271 (7C10-40GS-14E10) (VHH)
chain: EVQLVESGGGLVQAGGSLRLSCTASGRTLSSYTMGWFRQAPGTEREFVAAMTRSGFNTYYADSVKGRFTISRDSTENTMALQMSSLKPEDTAVYYCTAGRGLTSYRADYWGQGTLVTVSSGGGGSGGGGSGGGGSGGGGSGGGGSGGGGSGGGGSGGGGSEVQLVESGGGLVQPGGSLRLSCAASGRIFSINTMGWYRQAPGKQRELVAGVTINAITNYADSVKGRFTISRDNAKNTVWLQMNSLKPEDTAVYYCHAWARSSGSAPYSQNWGQGTLVTVSS
B14: Nanobody 259 (1E11-40GS-5H01) (VHH)
chain: EVQLVESGGGLVQPGGSLRLSCAASGSTRSVNPMAWFRQAPGRQREWVATISRSGYATYADSVKGRFTISGDNAKSSVYLQMNSLKPEDTAVYYCVTGTYWGQGTLVTVSSGGGGSGGGGSGGGGSGGGGSGGGGSGGGGSGGGGSGGGGSEVQLVESGGGLVQPGGSLRLSCAASGSTLDYYAIGWFRQAPGKEREGVSCTSNSGSTYYGGSVKGRFTASRDNAKNTVYLQMNSLRPEDTAVYYCVATIGCATLGGTLDVQRYYYRGQGTLVTVSS

The binders below were run against Full length PcrV (aa 1-294), C-terminal c-myc and His6 tags (Pseudomonas aeruginosa strain PAO1) (assay: ELISA, binder coated).
For cytotox assay (% inhibition), P3X63, PA103 in this document: test concentration or dose not given here.

B1: binds.
B2: binds.
B3: binds.
B4: binds.
B5: binds.
B6: binds.

Each binder was assayed against T1, PcrV of P. aeruginosa strain PA103 (on TTSS-induced bacteria) (Pseudomonas aeruginosa strain PA103) (assay: cell-based or functional assay).

Compared with B7, B8 is lower in “Ratio (IC50 Fab 13.37/IC50 Nanobody), A549 cytotoxicity” value (from here on “Ratio (IC50 Fab 13.37/IC50 Nanobody)”): 8 fold for the first, 1 fold for the second.

Compared with B9, B10 is higher in “Ratio (IC50 Fab 13.37/IC50 Nanobody)” value: 1 fold for the first, 2 fold for the second.

B11 and B12 are the same in “Ratio (IC50 Fab 13.37/IC50 Nanobody)” value: 1 fold for the first, 1 fold for the second.

First: B13
Second: B14
The “Ratio (IC50 Fab 13.37/IC50 Nanobody)” value of the first is lower: 1 fold for the first, 9 fold for the second.

The binders below were run against T2, PcrV fragment (aa 144-257), C-terminal c-myc and His6 tags (Pseudomonas aeruginosa) (assay: ELISA, binder coated; NB = binding signal = background signal).
T2 construct: also called small PcrV fragment

B6: no binding.

These binders were tested against T3, recombinant PcrV protein (rPcrV), strain PAO1, amino acid residues 1-294, C-terminal His6 (Pseudomonas aeruginosa strain PAO1) (assay: SPR ProteOn, periplasmic extract on immobilised rPcrV).

Compared with B1, B2 is 3.7-fold lower in koff: 0.00018 s⁻¹ for the first, 4.9e-05 s⁻¹ for the second.

First: B3
Second: B5
The koff of the first is 1.9-fold lower: 0.00018 s⁻¹ for the first, 0.00035 s⁻¹ for the second.

With B6 the koff was 0.00092 s⁻¹.

Biological target: T1, PcrV of P. aeruginosa strain PA103 (on …)
Assay: cell-based or functional assay
Remark: another data set of the same source

B1 and B2 are the same in “% inhibition, P3X63 cytotoxicity assay, MOI 4” value: 100% for the first, 100% for the second.

Going from B4 to B5, the “% inhibition, P3X63 cytotoxicity assay, MOI 4” value falls from 100% to 58%.

Going from B1 to B2, the “IC50 (nM), P3X63 cytotoxicity assay, MOI 4” value falls from 647 nM to 7 nM (92-fold).

Compared with B4, B5 is 2.9-fold higher in “IC50 (nM), P3X63 cytotoxicity assay, MOI 4” value: 8 nM for the first, 23 nM for the second.

B3 and B4 are the same in “% inhibition, P3X63 cytotoxicity assay, MOI 3” value: 100% for the first, 100% for the second.

Going from B3 to B4, the “IC50 (nM), P3X63 cytotoxicity assay, MOI 3” value falls from 435 nM to 1 nM (440-fold).

B4 and B6 cannot be ordered by “% inhibition, P3X63 cytotoxicity assay, MOI 1.5” value: 100% for the first, greater than 20% for the second.

First: B4
Second: B6
The “IC50 (nM), P3X63 cytotoxicity assay, MOI 1.5” value of the first is 36000-fold lower: 1 nM for the first, 35600 nM for the second.

Biological target: T1, PcrV of P. aeruginosa strain PA103 (on …)
Assay: cell-based or functional assay
Remark: another data set of the same source

First: B1
Second: B2
The “cytotox assay (% inhibition), P3X63, PA103” value (shortened to “cytotox assay (% inhibition)”) of the first is lower: 38% for the first, 76% for the second.

Compared with B3, B5 is higher in “cytotox assay (% inhibition)” value: 32% for the first, 33% for the second.

With B6 the “cytotox assay (% inhibition)” value was 13%.

The binders below were run against GST-PcrV (strain PAO1, amino acid residues 1-294) (Pseudomonas aeruginosa strain PAO1) (assay: SPR Biacore T100, GST-PcrV immobilised).

First: B1
Second: B2
The Kd of the first is 2-fold lower: 0.5 nM for the first, 1 nM for the second. The first binds more tightly here.

Going from B1 to B2, the koff falls from 0.00025 s⁻¹ to 0.00014 s⁻¹ (1.8-fold).

Going from B1 to B2, the kon falls from 510000 M⁻¹ s⁻¹ to 160000 M⁻¹ s⁻¹ (3.2-fold).

Biological target: T1, PcrV of P. aeruginosa strain PA103 (on …)
Assay: cell-based or functional assay
Remark: another data set of the same source

B7 and B8 are the same in “Efficacy (%), P3X63 cytotoxicity, MOI 12” value: 100% for the first, 100% for the second.

B9 and B10 are the same in “Efficacy (%), P3X63 cytotoxicity, MOI 12” value: 100% for the first, 100% for the second.

B4 and B11 are the same in “Efficacy (%), P3X63 cytotoxicity, MOI 12” value: 100% for the first, 100% for the second.

B12 and B13 are the same in “Efficacy (%), P3X63 cytotoxicity, MOI 12” value: 100% for the first, 100% for the second.

With B14 the “Efficacy (%), P3X63 cytotoxicity, MOI 12” value was 100%.

First: B7
Second: B8
The “IC50 value (M), P3X63 cytotoxicity, MOI 12” value (from here on “IC50 value (M)”) of the first is 4.9-fold lower: 1.3e-11 M for the first, 6.4e-11 M for the second.

First: B9
Second: B10
The “IC50 value (M)” value of the first is 5.9-fold higher: 4.8e-10 M for the first, 8.1e-11 M for the second.

Compared with B4, B11 is 6.9-fold higher in “IC50 value (M)” value: 5.4e-10 M for the first, 3.7e-09 M for the second.

Going from B12 to B13, the “IC50 value (M)” value rises from 6.1e-11 M to 5.9e-10 M (9.7-fold).

For B14, the “IC50 value (M)” value was 3.9e-11 M.

Each binder was assayed against T3, recombinant PcrV protein (rPcrV), … (assay: ELISA, periplasmic extract on biotinylated rPcrV).

Compared with B1, B2 is higher in “binding ELISA (OD 450 nm)” value: 2.57 OD 450 nm for the first, 2.69 OD 450 nm for the second.

Going from B3 to B5, the “binding ELISA (OD 450 nm)” value rises from 2.55 OD 450 nm to 2.56 OD 450 nm.

Biological target: T1, PcrV of P. aeruginosa strain PA103 (on …)
Assay: cell-based or functional assay
Remark: another data set of the same source

Compared with B7, B8 is lower in “% inhibition in P3X63 cytotoxicity assay, extract 1/150” value (“% inhibition … extract 1/150” for short): 85% for the first, 46% for the second.

Going from B9 to B10, the “% inhibition … extract 1/150” value rises from 42% to 46%.

First: B11
Second: B12
The “% inhibition … extract 1/150” value of the first is higher: 66% for the first, 59% for the second.

Compared with B13, B14 is higher in “% inhibition … extract 1/150” value: 43% for the first, 52% for the second.
